Data set [1] concerns the target VP64-C7-PR (Zif268 variant C7 + hPR LBD aa645-914) (synthetic) (UniProt P08046). The data set is described as follows: cell_activity. The following applies: HeLa luciferase, RU486-induced.
Data set [2] has as its target VP64-C7-ER (Zif268 variant C7 + mER LBD G525R) (synthetic) (UniProt P08046). The data set is described as follows: cell_activity. The conditions noted are these: HeLa luciferase, 4-OHT-induced.
A further data set deals with VP16-C7-ER (synthetic) (UniProt P08046). The data set is described as follows: cell_activity. The conditions noted are these: 4-OHT-induced, HeLa; no response to RU486.
The next data set concerns the target VP16-C7-PR (synthetic) (UniProt P08046). The data set can be described thus: cell_activity. The conditions noted are these: RU486-induced, HeLa; no response to 4-OHT.
Data set [3] deals with B3 three-finger zinc finger protein (Sp1C framework, designed) (synthetic). The data set can be described thus: EMSA. The following applies: Zn buffer (90 uM ZnCl2, 90 mM KCl, 1 mM MgCl2), 3 h room temperature. (In general: In EMSA bound probe runs differently from free probe, usually more slowly.)
The test system of data set [4] is E2C-RE-VP64 (hRXRa + Drosophila EcR LBDs) (synthetic). The data set can be described thus: cell_activity. The conditions noted are these: Ponasterone A-induced; significant basal activity.

Take “GAGGGTACCGCGTGGGCGAAAAAGCGTGGGCGAGTCGACTCTAGAGGGTATATAATGG (double strand) [C7 direct repeat, 3 bp spacer, TATA reporter]”: the activity came to 3.9 fold in data set [1] and 9.5 fold in data set [2]. In the case of “GCGTGGGCG (double strand) [10xC7-TATA-luc]”, the activity worked out at 43 fold with VP16-C7-ER (synthetic) and 26 fold with VP16-C7-PR (synthetic). For “GGAGGGGAC [B3 target site oligonucleotide]”, the Kd in data set [3] worked out at 15 nM. Take “GGGGCCGGAGCCGCAGTG (double strand) [E2C-TATA-luc single E2C site]”: the activity in data set [4] is 3 fold.

The term Kd denotes the constant that tells how readily two partners part at equilibrium. Lower therefore signals tighter binding.

(Values after patent US7741110.)
